Patent US20030060416A1 (IDUN PHARMACEUTICALS, published 2003)

B1: murine Blk (Bik-like killer), wild type (other)
chain: MSEARLMARDVIKTVPHDQVPQPPVASETPSMKEPVRDVDLMECVEGRNQVALRLACIGDEMDLCLRSPRLVQLPGIAIHRLAVTYSRTGVRGIFRSLIRSLTNLRENIWSWRVLTPGAWVSPDQDPGQLFPMVLLVFLLLGGAWYLQLQ
modifications: 35S-labeled (in vitro translated in rabbit reticulocyte lysate) in the GST pull-down
notes: Protein of 150 amino acids; Used 35S-labeled from in vitro transcription/translation in the pull-downs, and expressed from pRSC-LacZ in the apoptosis assays; also called 35S-labeled Blk; wild type Blk
B2: Bik (other, human, UniProt Q13323 1-160, looked up)
chain: MSEVRPLSRDILMETLLYEQLLEPPTMEVLGMTDSEEDLDPMEDFDSLECMEGSDALALRLACIGDEMDVSLRAPRLAQLSEVAMHSLGLAFIYDQTEDIRDVLRSFMDGFTTLKENIMRFWRSPNPGSWVSCEQVLLALLLLLALLLPLLSGGLHLLLK
modifications: 35S-labeled (in vitro translated)
notes: also called human Bik/Nbk; 35S-labeled Bik
B3: mutant Blk-DG59-D60 (Gly59 and Asp60 deleted) (other)
chain: MSEARLMARDVIKTVPHDQVPQPPVASETPSMKEPVRDVDLMECVEGRNQVALRLACIEMDLCLRSPRLVQLPGIAIHRLAVTYSRTGVRGIFRSLIRSLTNLRENIWSWRVLTPGAWVSPDQDPGQLFPMVLLVFLLLGGAWYLQLQ
modifications: 35S-labeled (in vitro translated) in the GST pull-down
notes: Cloned in pFLAG CMV-2 and the pRSC vector; also called M2

Experiments:
Test in all cases: GST pull-down of 35S-labeled protein on glutathione-Sepharose beads
[1] = target: T1, glutathione S-transferase (GST) control (UniProt P08515 1-218 = GST)
T1 construct: Control protein immobilized on glutathione-Sepharose beads
Experimental: (§1) After 36 h, extracts are prepared and immunoprecipitated with a monoclonal antibody to the Flag-epitope. The immunoprecipitates (upper panel) and the corresponding cellular lysates (lower panel) are analyzed by SDS-PAGE and immunoblotted with a HRP-conjugated T7-antibody. IP, immunoprecipitates. (C) Mutations in the BH3 domain of Blk abrogate its ability to interact with Bcl-2 and Bcl-xL. 35S-labeled wild type Blk, mutant Blk-DG59 (M1) or mutant Blk-DG59-D60 (M2) (lane 1, input) are precipitated with GST (lane 2), GST-Bcl-2 (lane 3), or GST-Bcl-xL (lane 4) and then analyzed by SDS-PAGE and Coomassie staining to detect the GST fusion proteins (lower panel) and autoradiography to detect the interacting labeled proteins (upper panel). (D) Mutations in the BH3 domain of Blk abrogate its proapoptotic activity. MCF-7 cells are transfected with the indicated plasmids and then assayed for apoptosis as in FIG. 3A.
(§2) Blk binds Bcl-2 and Bcl-xL. All the proapoptotic Bcl-2 family members can heterodimerize with Bcl-2 and Bcl-xL. To determine whether Blk can also bind to Bcl-2 or Bcl-xL, in vivo and in vitro binding studies are performed. Bcl-2 and Bcl-xL are constructed as GST fusion proteins inpGEX-4T-2 and pGEX-2T, respectively, by placing the coding sequence of Bcl-2 or Bcl-XL in frame C-terminal to the GST protein (Pharmacia). GST fusion proteins are expressed in E. coli and purified by affinity chromatography on a glutathione-coupled substrateGlutathione Sepharose 4B (Pharmacia). ³⁵S-labeled (Blk, Bik, Bax) proteins are expressed in vitro using a coupled transcription/translation system in rabbit reticulocyte lysate (TNT Kit; Promega). In vitro protein-protein interactions are carried out according to Boyd et. al. (supra). Briefly, labeled proteins are precleared by mixing with glutathione-coupled Sepharose beads, which are then removed by centrifugation. The supernatants are incubated with GST-Bcl-2, GST-Bcl-xL or GST immobilized on glutathione-coupled Sepharose beads for 2 h at 4° C. After extensive washing, proteins are recovered by boiling the beads in SDS-sample buffer and analyzed on 12% SDS-PAGE.
(§3) ³⁵S-labeled Blk, Bik or Bax are precipitated with glutathione S-transferase (GST), GST-Bcl-2 or GST-Bcl-xL fusion proteins immobilized on glutathione-Sepharose beads (FIG. 5A).

[2] = target: T2, GST-Bcl-xL fusion protein (human, UniProt P08515 1-218 = GST; Q07817 1-233)
T2 construct: Expressed in E. coli and immobilized on Glutathione Sepharose 4B beads
Experimental: as §1, §2, §3

[3] = target: T3, GST-Bcl-2 fusion protein (human, UniProt P08515 1-218 = GST; P10415 1-239)
T3 construct: Expressed in E. coli and immobilized on Glutathione Sepharose 4B beads
Experimental: as §1, §2, §3

T1 sequence (P08515 whole entry): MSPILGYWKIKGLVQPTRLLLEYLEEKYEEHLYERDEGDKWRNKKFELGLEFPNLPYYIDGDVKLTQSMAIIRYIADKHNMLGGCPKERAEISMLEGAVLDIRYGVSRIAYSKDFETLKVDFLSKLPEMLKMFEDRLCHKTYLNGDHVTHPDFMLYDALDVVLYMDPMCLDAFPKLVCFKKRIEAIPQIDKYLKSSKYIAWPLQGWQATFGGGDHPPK
T3 sequence (P08515 1-218, tags or fused parts left off): as the sequence (P08515 whole entry) above
T2 sequence (P08515 1-218, tags or fused parts left off): as the sequence (P08515 whole entry) above

Row | Binder | binding result [1] | binding result [2] | binding result [3]
1 | B1 | no binding | – | –
2 | B2 | no binding | – | –
3 | B3 | – | no binding | no binding
